B1: full-length transducer NpHtrII from Natronomonas pharaonis (natural protein)
chain: not shown
notes: Sensory rhodopsin II transducer (NpHtrII), Natronomonas pharaonis, UniProt P42259; gene optimised for expression in E. coli; also called cognate transducer; source: E. coli BL21-AI (SAXS) or BL21(DE3) (SANS), co-expressed with NpSRII, solubilised in DDM, purified (Ni-NTA, SEC); not shown: 6xHis-tag (with ENS-linker), C-terminal, kept
B2: full-length NpSRII/NpHtrII complex (complex)
chain 1: MVGLTTLFWLGAIGMLVGTLAFAWAGRDAGSGERRYYVTLVGISGIAAVAYVVMALGVGWVPVAERTVFAPRYIDWILTTPLIVYFLGLLAGLDSREFGIVITLNTVVMLAGFAGAMVPGIERYALFGMGAVAFLGLVYYLVGPMTESASQRSSGIKSLYVRLRNLTVILWAIYPFIWLLGPPGVALLTPTVDVALIVYLDLVTKVGFGFIALDAAATLRAEHGESLAGVDTDAPAVAD
chain 2: not shown
notes: Sensory rhodopsin II (NpSRII), Natronomonas pharaonis, UniProt P42196; no limits stated; as m1; Sensory rhodopsin II transducer (NpHtrII), Natronomonas pharaonis, UniProt P42259; as m2; also called sensory rhodopsin II/transducer complex; full-length phototaxis complex; source: E. coli BL21-AI (SAXS) or BL21(DE3) (SANS), co-expressed, solubilised in DDM, purified (Ni-NTA, SEC); not shown: …

What was measured:
[1] = target: the molecule itself; test: SANS; full-length complex 0.40 mg/ml in D2O buffer, 4.0 M NaCl, 100 mM Na/Na-Pi pD 8.0, 1 mM EDTA, 0.05% DDM; OLIGOMER fit to a mixture of dimers and trimers of dimers (trimer of dimers = six NpSRII/NpHtrII units)
[2] = target: the molecule itself; test: SAXS; detergent-solubilised (DDM) complex, peak fractions after gel filtration; low salt (150 mM NaCl); 0.57 mg/ml full-length and 0.78 mg/ml truncated complex; BM29 (ESRF); curves fitted with atomistic dimer models with a detergent belt (MEMPROT, CRYSOL3)

Protein	binding result [1]	stoichiometry N [1]	stoichiometry N [2]
B1	binds		
B2		6	2

Source: publication PMC8144572, “Molecular model of a sensor of two-component signaling system” (Scientific Reports, 2021)
